Experimental data: publication doi:10.1101/2025.02.27.640518

Target: nCBP-2^L51F (yeast two-hybrid fusion) (cassava)
Assay: two-hybrid

Question: For “CBSV Naliendele VPg fused to the B42 transcriptional activation domain (natural protein)”, which fold less reporter activity than with nCBP-2 is on record?
Answer: 8 fold
